Data taken from publication PMC3733499 (Thrombosis and haemostasis, 2013).
pIC50, pKd: −log10 of the molar value. One block for each compound: values may come before it. Where a SMILES comes first, the peptide text is derived from it.

Legend:
[1] = target: prothrombinase (FXa/FVa/PL) (Homo sapiens, UniProt P00742+P12259); experiment: Purified component prothrombinase assay with FVa and PL; type: biochemical; details: for FVa-dependent inhibition of prothrombinase activity: peptide preincubated 10 min with FVa/FXa/PL
prothrombinase (FXa/FVa) = experiment: Purified component prothrombinase assay with FVa, without PL; type: biochemical, human; details: absence of PL; data not shown
Factor Xa (Homo sapiens) = Factor Xa (Homo sapiens) (UniProt P00742); details: cited from earlier work
Factor Va (Homo sapiens) = Factor Va (Homo sapiens) (UniProt P12259); details: cited from earlier work

prothrombinase (FXa/FVa/PL), sequence (P12259 29-737 limits assumed): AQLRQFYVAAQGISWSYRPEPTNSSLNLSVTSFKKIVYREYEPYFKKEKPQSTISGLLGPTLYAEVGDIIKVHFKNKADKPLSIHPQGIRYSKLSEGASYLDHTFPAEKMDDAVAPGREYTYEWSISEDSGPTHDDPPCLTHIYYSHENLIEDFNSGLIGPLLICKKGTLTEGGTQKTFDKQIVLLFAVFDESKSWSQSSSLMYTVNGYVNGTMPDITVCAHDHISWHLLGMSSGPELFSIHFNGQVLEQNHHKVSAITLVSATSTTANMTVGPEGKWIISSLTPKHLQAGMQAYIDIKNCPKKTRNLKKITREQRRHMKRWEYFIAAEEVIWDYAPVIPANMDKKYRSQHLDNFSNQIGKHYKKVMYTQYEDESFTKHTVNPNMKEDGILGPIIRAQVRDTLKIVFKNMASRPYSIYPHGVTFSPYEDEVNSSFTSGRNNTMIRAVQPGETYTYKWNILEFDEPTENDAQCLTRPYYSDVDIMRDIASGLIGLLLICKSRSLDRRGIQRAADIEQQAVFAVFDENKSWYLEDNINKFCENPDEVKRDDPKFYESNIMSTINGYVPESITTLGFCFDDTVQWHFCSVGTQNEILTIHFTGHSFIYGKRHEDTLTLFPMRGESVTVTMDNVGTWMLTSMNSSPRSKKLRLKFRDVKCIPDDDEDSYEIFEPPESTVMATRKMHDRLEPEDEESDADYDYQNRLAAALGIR
prothrombinase (FXa/FVa/PL), sequence (P12259 1574-2224 limits assumed): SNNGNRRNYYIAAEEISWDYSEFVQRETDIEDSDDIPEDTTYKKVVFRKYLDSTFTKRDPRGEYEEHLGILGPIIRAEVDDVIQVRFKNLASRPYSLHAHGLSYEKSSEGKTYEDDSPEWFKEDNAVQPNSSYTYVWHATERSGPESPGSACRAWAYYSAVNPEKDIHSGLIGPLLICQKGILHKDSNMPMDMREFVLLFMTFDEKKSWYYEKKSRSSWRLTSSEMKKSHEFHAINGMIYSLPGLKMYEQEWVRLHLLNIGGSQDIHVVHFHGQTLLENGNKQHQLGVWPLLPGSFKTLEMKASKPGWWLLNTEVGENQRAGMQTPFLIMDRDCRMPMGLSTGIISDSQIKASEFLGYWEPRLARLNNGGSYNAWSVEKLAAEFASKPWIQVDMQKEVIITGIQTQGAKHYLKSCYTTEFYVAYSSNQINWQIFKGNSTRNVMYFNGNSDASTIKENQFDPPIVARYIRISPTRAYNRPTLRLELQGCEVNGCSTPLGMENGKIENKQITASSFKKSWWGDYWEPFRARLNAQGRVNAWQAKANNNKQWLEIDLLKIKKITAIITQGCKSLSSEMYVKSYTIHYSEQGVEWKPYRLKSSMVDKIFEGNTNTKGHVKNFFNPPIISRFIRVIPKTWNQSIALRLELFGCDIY
prothrombinase (FXa/FVa/PL), sequence (P00742 41-179 partner limits assumed): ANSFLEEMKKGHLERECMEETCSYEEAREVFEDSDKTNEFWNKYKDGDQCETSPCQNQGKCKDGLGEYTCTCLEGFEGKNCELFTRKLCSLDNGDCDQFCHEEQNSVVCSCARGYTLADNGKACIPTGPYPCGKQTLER
prothrombinase (FXa/FVa/PL), sequence (P00742 235-488 partner limits assumed): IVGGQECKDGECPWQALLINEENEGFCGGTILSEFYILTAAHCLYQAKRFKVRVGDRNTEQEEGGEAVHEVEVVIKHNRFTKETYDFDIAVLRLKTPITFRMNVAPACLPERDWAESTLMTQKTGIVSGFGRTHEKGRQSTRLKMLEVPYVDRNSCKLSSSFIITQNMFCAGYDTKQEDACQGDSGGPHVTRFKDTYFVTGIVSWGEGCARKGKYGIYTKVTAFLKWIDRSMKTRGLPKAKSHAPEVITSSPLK
Factor Xa (Homo sapiens), sequence (P00742 235-488): as the sequence (P00742 235-488 partner limits assumed) above

Compound: PSP30: 14-mer peptide, PS residues 30–43 (VFENDPETDYFYPK; UniProt P07225 71-84, looked up, fragment)
FVa-dependent inhibition of prothrombinase activity [1]: did not inhibit prothrombinase

Compound: Phospholipase A2
Effect of phospholipase A2 on prothrombinase activity ([1]; mixtures that contained PL, data not shown): greatly diminished
Effect of phospholipase A2 on PS inhibition (prothrombinase (FXa/FVa)): no effect on PS inhibition
Effect of phospholipase A2 on prothrombinase activity (prothrombinase (FXa/FVa)): no effect on prothrombinase activity

Compound: Protein S (from UniProt P07225)
pKd (Factor Xa (Homo sapiens)): 7.74
pKd (Factor Va (Homo sapiens)): 7.48

Now from value to compound:

pIC50 [1]: 4.96
Inhibition of prothrombinase ([1]; 40 μM peptide): 90%
Compound: CC(C)C[C@H](NC(=O)[C@H](CS)NC(=O)[C@@H](NC(=O)[C@H](CC(C)C)NC(=O)[C@H](Cc1ccc(O)cc1)NC(=O)[C@H](CCCCN)NC(=O)[C@@H]1CCCN1C(=O)[C@H](Cc1ccc(O)cc1)NC(=O)[C@H](Cc1ccccc1)NC(=O)[C@H](Cc1ccc(O)cc1)NC(=O)[C@H](CC(=O)O)NC(=O)[C@@H](N)[C@@H](C)O)C(C)C)C(=O)N[C@@H](CCCNC(=N)N)C(=O)N[C@@H](CO)C(=O)O [PSP37, TDYFYPKYLVCLRS] (H-TDYFYPKYLVCLRS-OH)

FVa-dependent inhibition of prothrombinase activity [1]: did not inhibit prothrombinase
Compound: PSP48: 14-mer peptide, PS residues 48–61 (LRSFQTGLFTAARQ; UniProt P07225 89-102, looked up, fragment)
